Experiments:
[1] = molecular target: Pf-WRS catalytic domain (aminoacylation and anticodon binding domains) (Plasmodium falciparum); assay: SEC; gel filtration on Superdex200, 20 mM Tris, 100 mM NaCl, pH 7.5; oligomeric state from migration against markers (BSA, DTD)
[2] = molecular target: Plasmodium falciparum cytoplasmic tryptophanyl-tRNA synthetase, full length (Plasmodium falciparum); assay: as above

Substance: Pf-WRS catalytic domain (aminoacylation and anticodon binding domains) (domain or fragment)
- stoichiometry N [1]: 2

Substance: Plasmodium falciparum cytoplasmic tryptophanyl-tRNA synthetase, full length (enzyme)
- stoichiometry N [2]: 2

Reference: article PMC3680381
